This is an account of results in paper PMC13342644 (2026).

For one assay, the target named is NB2. Description: ELISA. (ELISA stands for enzyme-linked immunosorbent assay.)
The next assay has as its target NB1. Briefly: ELISA.

B1: Avi-tagged, biotinylated GDP-mannose transporter Vrg4 from Candida albicans (natural protein)
chain: MDSKHSTSSSSSGSLATRISNSGPISIAAYCLSSILMTVTNKYVLSGFSFNLNFFLLAVQSIVCIVTIGSLKSLNIITYRQFNKDEAKKWSPIAFLLVAMIYTSSKALQYLSIPVYTIFKNLTIILIAYGEVIWFGGKVTTMALSSFLLMVLSSVIAYYGDNAAVKSHDDAFALYLGYFWMLTNCFASAAFVLIMRKRIKLTNFKDFDTMYYNNLLSIPILLICSFIFEDWSSANVSLNFPADNRVTTITAMILSGASSVGISYCSAWCVRVTSSTTYSMVGALNKLPIALSGLIFFEAAVNFWSVSSIFVGFGAGLVYAVAKQKQQKEQSQQLPTTK
modifications: biotin (Avi tag biotinylated using BirA ligase)
Regarding B1, the results for the Kd with NB2 and with NB1 were 125 nM and 109 nM, respectively.
